Measured values published in patent US7618977B2, “Method of treating dermatitis comprising administering a chymase inhibitor” (Asubio Pharma Co., Ltd., priority 2000, dated 2009).

Tests used:
Human heart chymase = target: T1, Human heart chymase (Homo sapiens, UniProt P23946); test: Measurement of chymase inhibitory activity; format: biochemical; settings: purified human heart chymase, substrate Suc-Ala-Ala-Pro-Phe-MCA, 30° C.
T1 construct: Human heart chymase was purified according to the method of Urata et al; from tissue; host or cells: human heart
T1 sequence (P23946 22-247): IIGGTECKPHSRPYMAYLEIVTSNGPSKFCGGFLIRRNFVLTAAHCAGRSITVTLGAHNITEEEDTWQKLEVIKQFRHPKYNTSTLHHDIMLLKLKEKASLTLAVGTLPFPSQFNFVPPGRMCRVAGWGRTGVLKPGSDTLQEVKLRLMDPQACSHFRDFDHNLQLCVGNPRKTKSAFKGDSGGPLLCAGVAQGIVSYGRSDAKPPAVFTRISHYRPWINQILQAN
Description: Human heart chymase was purified according to the method of Urata et al. (J. Biol. Chem., 1990, 265, 22348). The inhibitory activity of the quinazoline derivatives of the present invention with respect to chymase was measured in the following manner. That is, the purified enzyme solution was diluted to a suitable concentration with 0.1M tris-hydrochloride buffer (pH=7.5), 1M sodium chloride, and 0.01% TritonX-100 to obtain an enzyme solution. A 10 mM dimethyl sulfoxide (hereinafter referred to as DMSO) solution of Suc-Ala-Ala-Pro-Phe-MCA (Peptide Institute) was diluted 20-fold at the time of use by 0.1M tris-hydrochlorate, 1M sodium chloride, and 0.01% TritonX-100 to obtain the substrate solution.
75 μl of the enzyme solution warmed to 30° C. was mixed with 5 μl of DMSO solution of the test sample. The mixture was preincubated at 30° C. for 10 minutes. Next, 20 μl of a substrate solution warmed to 30° C. was mixed with the test sample-enzyme mixture and incubated at 30° C. After 10 minutes, 50 μl of 30% acetic acid was added to stop the enzymatic reaction. The amount of the AMC produced was quantified using a fluorescent photometer. At the same time, a blind test was carried out by adding, instead of the test sample solution, 5 μl of DMSO and performing the same reaction. […]

[1] = system: human polymorphonuclear leukocytes (PMN); test: Human chymase-induced migration of polymorphonuclear leukocytes, 48-well chemotaxis chamber; format: cell-based
Description: In Example 6, it was shown that a remarkable infiltration of leukocytes is observed in late-phase reaction of human chymase-induced dermatitis. The effect of human chymase on the migration of polymorphonuclear leukocytes (PMN) in vitro was investigated for the purpose of investigating the mechanism of chymase-induced leukocyte infiltration. PMN was isolated by adding a ⅕th volume of 6% dextran solution to heparinized whole blood from normal healthy subject and allowing it to stand at 37° C. for 1 hour, then layering the supernatent on Ficoll-Paque (Amersham Pharmacia Biotech) and centrifuging it. Further, the migration of PMN was measured by using a 48-well chemotaxis chamber (NeuroProbe Co.) by the textbook method (Seibutsu Yakkagaku Jikken Koza (Biopharmacology Experiment Lectures) 12, 315, Hirokawa Shoten). That is, a medium containing human chymase (200 to 800 nM) or fMLP (N-formyl-L-methionyl-L-leucyl-L-phenylalanine, Sigma-Aldrich Co.) (10 nM) was placed in the lower well of the chamber. The upper well and the lower well were separated by a polycarbonate filter (pore size 5 μm) (NeuroProbe Co.) PMN (1×10^6/ml) was added to the upper well and cultured at 37° C. for 1 hour, then the filter was fixed, stained and the number of cells in the membrane were counted under a microscope (400×) (Seibutsu Yakkagaku Jikken Koza (Biopharmacology Experiment Lectures) 12, 315). For the cell staining, a hemacolor solution (Merck) was used. In this test, when investigating the effect of the chymase inhibitor, a chymase inhibitor (Compound 18 or Compound 34) was dissolved in dimethyl sulfoxide and added to the lower well of the chamber just before the addition of the human chymase. The concentration of the compound was adjusted so that the final concentration of the dimethyl sulfoxide became 1%.

eosinophils of the skin = test: Administration of human chymase to mouse ears, number of eosinophils of skin; format: in vivo, mice; settings: p<0.01
Description: The effect of a chymase inhibitor on the infiltration of eosinophils of the skin in the test of Example 10 was studied. That is, 48 hours after the sixth application of hapten, the ears of the mice were fixed with formalin and paraffin sections prepared in accordance with an ordinary method. The sections were stained with Fast Green (Fluka), known to specifically stain eosinophils (Current Protocol in Immunology, Wiley Interscience). That is, the deparaffined sections were fixed with 100% methanol for 1 minute, then stained for 30 minutes by 0.2% Fast Green dissolved in 70% ethanol. The eosinophils were measured by randomly selecting 10 fields (×400) under a microscope and counting the number of cells per area using an ocular grid. As the chymase inhibitor, the Compound 18 and Compound 34 were used and =administered by the method described in Example 10. […] The thickness of the ear was measured by a micrometer (Digimatic Indicator, Mitsutoyo Co.) immediately before each administration of chymase and 1 hour, 6 hours, 24 hours, and 48 hours after the administration to find the increase from the ear thickness before the first administration of chymase. […] The number of eosinophils of the skin was measured by the method described in Example 11. […]

CC(C(=O)O)C(=O)Nc1cccc(S(=O)(=O)n2c(=O)[nH]c3cc(Cl)ccc3c2=O)c1 (centres unmarked) [Compound 13, 2-{3-[(7-chloro-2,4(1H, 3H) -quinazolinedion-3-yl)sulfonyl]phenylaminocarbonyl}propionic Acid]
IC50 (Human heart chymase): 0.3 µM

B1: human chymase: recombinant human mature chymase expressed in CHO dhfr- cells, purified; serine protease of mast cells (protein, UniProt P23946 22-247, looked up)
Chymase: T1 sequence (P23946 22-247)
migration-promoting activity relative to fMLP ([1]; 200 to 400 nM chymase equals 10 nM fMLP): about 1/30
concentration at which promotion of human PMN migration is statistically significant ([1]; chymase 200 to 800 nM in lower well, p<0.05 Dunnett's test): ≥ 400 nM
increase in number of eosinophils compared with ear administered saline (eosinophils of the skin; 24 hours after single intradermal administration of 2.0 μg): approximately 7.6 fold
increase in number of eosinophils compared with group administered saline (eosinophils of the skin; administered at 1 week intervals four times in total, 1 week after administration): about 21 fold
